This series in a line: soluble on expression in E. coli; label from the status in PepcDB or PDB records.
Take “MGSDKIHHHHHHLGNNAPRIIDFADSKGKGIIKYRYASMGAGQASSFQKKFTGKEPVEKIQHYLHVVFKEQLGKLYTAKTHEKMNLLSYYEFDNISAGKLKASIGNVYQGNIEANEFILHANSFPNPLNFYKNDLDTYLKNNNMYAFQSYVHGDLNGANIIIDAQDNVWIIDFFHTHRGHVLKDLVKLENDLLYIFSEMHSESDFQEALKISEVLFAVSDLQASLPDITQTGITKPSFVRVYKTLSYLRSLYSDLVEWDRNPLQVFIAQLRYSMHSLIFDECNQWQKEWALYNSGKFSQIISNKFLETDKLRIDFIKSDKIDAHSLALTILPGRKDYSRDLSEDLKEIKEQQIDCVVSLITKDEMDMYGVPELLDVYKKQGVECLHVPVIDQKIPVKAEIERINAFINAQQKKHKKVLIHCVGGLGRSGLVAACYLKSLGYPSDDAIKIVREARSSRAIESTEQEKFVYDYNERTV”: the “soluble on expression in E. coli” value is given as “not soluble”.
For the sequence “GPGSMTTLVLCDGSEGSLRSIEVACAGNATPTSSMPSQEGSLLLLHVWDTPATRTSVLHPSVGAEGMYTPRRSVSSAAAAAAQTSADAGGHGGSSMPCADVLTTTLQYIHTNKYLKNKLHYTVETTCASTVFARDNTDHSVLSEAGAAPAGGTAASQAAHGRAGQGQKRASCSAGGAGSARRRSDRRPSQRQIDTAAEISAGSSNNTGDGTAPERQEAPVSIPENEKRAMAVVKYATARAAHHHVTAVLLGVGQRQDGKVCTVGAVAQGVLLELRSLYPLYYVKKDGVKWRPALSTTTTTTAATPRRFTIVVAVPADARWESATAAETRSGNEEAAAQTTASIETPSVAPPQVPIHVQEAVAATVQYVQTRCMRLHAALQVEQITFAVIATSSSQDGNSITEPDRGENGGHVAAGPDASGGKDGSTWISPLEAYKRHLESLPFVECKSIPPANAAAPLLSPVNRINPAAVGETGGIEQHLPEDGAAMMCVEGSATGAPAPRGAASPVAVCVLKASKKNPLLSLDSEPEVALPQIIKQVGSLKPEVLVMPKSLVPESLQLALLATSNPHCIVLPF”, the “soluble on expression in E. coli” value is listed as “soluble”.
With “MTKQDQLIVEKMEQTYEAFSPKLANLIEALDAFKEHYEEYATLRNFYSSDEWFRLANQPWDDIPCGVLSEDLLFDMIGDHNQLLADILDLAPIMYKHM” the entry was “not soluble”; with “MGSDKIHHHHHHMFDWEDLRHFSAFSSAGSLSAAAKTLGVDHATVARRIASLEASLQLKLVDRRPRAYALTHEGQRVAELAEQMAMSSFALEHFASAGQQTVEGEVVLSAPPALLGSIIARRLGELYQRYPQLRLKLVGSKSKASLVRREADISIALARPTEPTLVVSLLGHLDYRLYASPGYLASATVRRYIGYDESQARSPQQQWLNLQAGQQPFALHSNDLRIQAQACAGGIGIACLPAFMAQEHGLKEAGSAQQTMSIEIWLAVHEDVRATPRIKAVTDFLQQQVRPLLRL”, “not soluble”; with “MSSNECFKCGRSGHWARECPTGGGRGRGMRSRGRGFQFVSSSLPDICYRCGESGHLAKDCDLQEDACYNCGRGGHIAKDCKEPKREREQCCYNCGKPGHLARDCDHADEQKCYSCGEFGHIQKDCTKVKCYRCGETGHVAINCSKTSEVNCYRCGESGHLARECTIEATA”, “not soluble”.
For “MGHHHHHHSHVEIIQKVVVKQILTEASKQELIEYYTEQKRQIEQECDQLHFEQKKMERKSKFQPERVADYFTHELDIRREKKKLIQFQMEQLEVLELGSEIREREMETIIDVQVGDKWDKSIFDKTIVVKDGIIVEIR”, the “soluble on expression in E. coli” value is on record as “soluble”.
With “MGSDKIHHHHHHMQIDDFASNLRLLCSTESSVSAVCRQIGVNRQQFSKYLSGAARPSPSNMRKIAVHFGVRPAEFMLPADEFESHPSVAGKLVGPSVTHSDRDGFESAFRGQTIPLRRYLGYYLSYFLTQSWENSIICAIVRLDEVNGLIRCRSLERSIDPDDGSLYLSKYDGRVAMLGNRIFVMEYQTLARDALVETVLYPVGRGQLQYLRGTTFGITSRQRTPFTSPVVWRYLDDFPTLRDVMRKVGRYDINSAKLDPTARSILLGGHNKGTD” the entry was “not soluble”; with “GMCVEKTPWELVIDFHGHTCPDIALGYRIAQLAQREMGIRPAPDSECLVKAYTQSCALDAIQVLNKATIGRHALIIEETHRYMYQFHFTGTQDIHQFTVSPAVLDHLETLRHPDLSPRERQNKVLEGVQYVLTLEESAFCHYDKIPGQLSKIV”, “soluble”.
For “MGSDKIHHHHHHKVEGNGNIITKEISVDNYSEIELGGNIEYSGNNFWGNRSNKKFPVFKYTHGRSASLKITIDENLFPLLSIKSNNGRLAIRIQDGTRIKPTQYVIEGSSKTLKYLKTSGPMDFEAQNAFSEDQLEIKISGSSDVKFPHNVKLRLGEFSVSGSGDLVFEDLDCKNLTSKVSGSGDITLKGKADEARYSVSGSGDIKAYDLSVNDLSCSVSGSGDARVYAKDNMNLSVSGSGDIRYKGPANVNKSKSGSGSIQGAN”, the “soluble on expression in E. coli” value was “not soluble”.
With “MSLAQTLGYIYRKRMIDSIEEFSRQIETTYQINKFWDNFEQIREVQNTKIDKVKEKQQKLMERLSSLYDKVEGQKEMGSMNNSNISAAESEWFAEIKRSVIEFNSYVRKASTNHQELEFIKEQQAQIANQKPDISSENGKEWNDLQQLLREGHHHHHH” the entry was “soluble”.
With “MVRTVKSYNGEADDLAGQIHTLPAVWVTYGGSKVEPASTGGVCGRYQDTAEFVVMVAARNLRNEQAQRQGGIDSREIGSNDLIRAVRRLLDGQRLGFADSRGLVPKAVRAIANHVLVQNAAVSIYAVEYAIRFNTCGLENDRYPERTDNPDDPNHIFTKYQGTLSEPWPDFEGLDGKIYDPQSADEIPVNLTLKDKQ” the entry was “not soluble”.
Then “MTAVRRIRAAALPDLPDASWSNALLVGEELVMSGMTAHPATRQAAERGAALDAHAQALVVLGKVKALLEAAGGHVGNLYKLNVYVTRIADKDAIGRARQEFFAGQGTFPASTLVEVSGLVFPELLVEIDAWARLDIDLANCDEA”, with “soluble”; and “MPTLQAAMFLEKDMQKNTLWFDSLSMQDVDKVGGKNASLGEMVSNLANAGVSVPNGFATTAYAFNQFLDFEGLDERIHQLLDELDVDDVDALRKTGATIRQWILQAPFPAELEQEIRTNYNQLIDGNSELSVAVRSSATAEDLPDASFAGQQETFLNVKGIDAVLEATKHVYASLFNDRAISYRVHQGFDHRGIALSAGIQRMVRSDKAASGVMFTLDTESGFDKVVFITAAWGLGEMVVQGAVNPDEFYVHKPLLEAGYPAIVKKTFGSKLSKMIYANSQVIGKQVEVVDTSAHERNQFSLTDAEIQELAKQALIIEKHYQRPMDIEWAKDGIDGKLYIVQARPETVCSQSEQNVIERYELSHKASVLLEGRAIGQRIGSGTVRLVDSLDQMSLVQQGDVLVTDMTDPDWEPVMKKAAAIVTNRGGRTCHAAIIARELGIPAIVGCGDATRRLSDGAQVTVSCAEGETGYVYAGQLDFAVRRSSVDELPMLPTKVMMNVGNPDRAFDFAQIPNEGVGLARLEFIINKMIGIHPKALLNFDTQSAELQTQILDRIRGYRDPIDFYVSKLTEGIATIAAAFWPKRVIVRMSDFKSNEYSNLLGGSEFEPHEENPMLGFRGASRYISPVFEDCFELETQAIKRVRHEMGLKNVEVMIPFVRTTGEAEAVIDLLAKFGLRRGEQGLKVIMMCELPSNAVLADEFLKFFDGFSIGSNDMTQLTLGLDRDSGDVAHLFDERNPAVKIMLKMAIDAATRAGKYVGICGQGPSDHDDLAQWLMEQGISSVSLNPDTVIDTWLKLGAVSKC”, with “not soluble”; and “MNSDEVQLIKKTWEIPVATPTDSGAAILTQFFNRFPSNLEKFPFRDVPLEELSGNARFRAHAGRIIRVFDESIQVLGQDGDLEKLDEIWTKIAVSHIPRTVSKESYNQLKGVILDVLTAASSLDESQAATWAKLVDHVYGIIFKAIDDDGNAK”, with “soluble”.
Regarding “MSTSRDRVRQALSHQGSDRIPVDFGATAVTGIHCRVVEALRKHYGLSYKPVKIVDTFQMLGEVDRDLADAMGVDCIGVGGTRDIFDHDTECMHEQVTPWGQKVLVPIQLDLTQDKEGDVYVYAGGDKNYPPSAVMPNGCFFINAIERQQPIDEDKLNPMDNLEEFNSITDEELDVYKKKVNEASATGRAVVASFGGTALGDVAFVPGMGLKEPKGIRSVVEWYMSTVMRQEYLHEIFRRQTDIAIANYEKLWAVLGDKVDVVLTCGTDFGSQESQFCSVEVFNELWLPHYRRMNDWIHEHTTWKVFKHSCGAIVPILPGLIKAGFDIINPVQINAKDMDSGMLKREFGSHLTFWGGGVDTQKMLPFGTPDEIRRHVLGQCEILGKDGGFVFNSVHNIQANVPVENVIAMLDALKTVLEHHHHHH”, the “soluble on expression in E. coli” value is “not soluble”.
Turning to “MSLNTVVTALPYFQERAERVASAINAEFIHYHSGLFSELYRTTQRIVAIMAIGIVIRNIAPLIHDKWTDPAVVVISPDMQYAIPVLGGHHGANDLVYLLQERCGLTPVITTATEATGREAVEVLANREHLRIVNTRSTRQANASVLTGSAKVYRLPGPGMVIAGSGVSFLVADGPYSVGIGCRLGTSADEIVHAIHSACETAGISQEDIAIYATGGIKTHESGLLDAVRTLGRNIIFLNHSDLSEVAPPSQSAASRFGLPGVAEPAALAVSVHHHLILEKQIYGNVTIAIAEEGHHHHHH”, the “soluble on expression in E. coli” value is reported as “not soluble”.
“MVNSTTLAHLNTNIDHLTTVLSSYAGRDKAIRSLAFYLQLKSTTSPDNAKEILGLAKQLSAARLVSRQFNHPGMLKSCRQIMQAFQTGRIGDPLEFLTGAAVTGIYTVYGFVELLAWLSDAKILAFNSARLYKWCLYLWLSELINGIVRQMRVIYRKGIEKSQEDILTLVGLSSDFISGVNSLPHKILWAGKLSMRQSASFSLLASIIGFYKLW”: the “soluble on expression in E. coli” value is “not soluble”.
Then “MSLARQVTAFNTGWQFKKGPFATDPMRAASQWDGKWETVEIPHTWNAMDMQVQSGSFYEGAGYYRKTQFFPHDLEGKRVFLRFEGVGACAEVYVNGKLAGTHKGGYSAFACEIGTALKLGAENEIIVKADNKARPDVIPVNQNLFGVYGGIYRPVWLIVTEQNNITVTDCASPGVYITQKDVSKKSADITVKVKLDNAGLQPAAVTLENTIYTQEGQKVGTHSRSFDLSPQGTQTYLSTFKLKNPHLWQGRKDPYLYKVVCRLMADGKVIDEVVQPLGVRKYEIVAGKGFFLNGEKYSMYGVTRHQDWWGLGSALKNEHHDFDLAAIMDVGATTVRFAHYQQSDYLYSRCDTLGLIIWAEIPCVNRVTGYETENAQSQLRELIRQSFNHPSIYVWGLHNEVYQPHEYTAALTRSLHDLAKTEDPDRYTVSVNGYGHMDHPVNLNADIQGMNRYFGWYEKKIQDIKPWVEQLEKDYPYQKLMLTEYGADANLAHQTEYLGDALNWGKPFYPETFQTKTHEYQWSIIKDHPYIIASYLWNMFDFAVPMWTRGGVPARNMKGLITFDRKTKKDSYFWYKANWSEEPVLYLTQRRNADREKRTTAVTVYSNIGTPKVYLNGQELSGIRNGYTDVHYVFDNVSLADGKNILKAVVSTKGKEYTDEIEWNYSGEKNREIDSYENKNEHSGEGHHHHHH”, with “soluble”; and “MAHHHHHHSLEYNLTTTDVVMENVTAFWEEGFSKLFEKAKENNNNRKISNCDTSLFFSNLLLGTPVLKDISFKIERGQLLAVAGSTGAGKTSLLMMIMGELEPSEGKIKHSGRISFCSQYSWIMPGTIKDNIIFGVSYDEYRYRSVIKACQLEEDISKFSEKDNIVLGEGGITLSGGQRARISLARAVYKDADLYLLDSPFGYLDVLTEKEIFESCVCKLMANKTRILVTSKMEHLKKADKILILHEGSVYFYGTFSELQNQRPDFSSKLMGCDTFDQFTAERRNSIITETLRRFSLEGDTSV”, with “soluble”.

Values taken from the DeepSol protein solubility set.
